Laboratory results taken from PMC11532494 (Nature Communications, 2024).

Molecular target: AcuC (acetoin-utilization protein C) of Bacillus subtilis (Bacillus subtilis) (UniProt P39067)
Assay: dose-response enzyme inhibition (Fluor-de-Lys assay)

AcuC (acetoin-utilization protein C) of Bacillus subtilis (Bacillus subtilis), sequence (P39067 whole entry): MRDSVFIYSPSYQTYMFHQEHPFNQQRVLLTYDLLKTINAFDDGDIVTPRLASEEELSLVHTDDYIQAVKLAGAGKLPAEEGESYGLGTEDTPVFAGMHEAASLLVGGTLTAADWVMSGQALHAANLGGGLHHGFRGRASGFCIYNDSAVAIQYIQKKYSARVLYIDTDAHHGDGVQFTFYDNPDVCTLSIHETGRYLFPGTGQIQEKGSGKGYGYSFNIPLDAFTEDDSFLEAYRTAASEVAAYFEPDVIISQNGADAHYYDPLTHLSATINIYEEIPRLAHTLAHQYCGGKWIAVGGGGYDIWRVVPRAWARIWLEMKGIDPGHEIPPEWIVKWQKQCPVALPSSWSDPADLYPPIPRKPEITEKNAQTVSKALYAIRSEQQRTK

## apicidin A (peptide)
  Ki: < 0.072 µM
